Here are results for 13 sequences from the DeepSol protein solubility set.

The nature of this series: soluble on expression in E. coli; label from the status in PepcDB or PDB records.
As to “MLDPELIGNPEDILEKPALKILGKEVEVYDLSNPFGYGVPLWPYFNDVIIDRYHYHAKSRVLSQIITTTMHVSTHADAPIHVEEGFPSIDEVPIERYMGEGVVVSIPKKKWEVITAEDLEKADPPIEKGDIVIVNTGWHRYWSDSVKYFCYAPGFYKEAGEWFVKKKVKAVGIDTQALDHPLATREAWHHPGADERNSILPWLKEEYKQLTGRDVSEDFPYWEPCHRLLLTHGIMGWENVGGDIDKVTGQRCTIIGLPIRWVKGDGSIVRLVALVEKR”, the “soluble on expression in E. coli” value is on record as “soluble”.
Turning to “MGSDKIHHHHHHDFLDRHPQGQFTEDDNPGALAEGKVFNIYTMMRNYNITAGIPAFAIEYFRSEDSEKGSTASDGADQAAMYDDFQYNASNGLIKAYWSQNYAVIYQCNDVIETIEKGNLTEENDLRNKGEALFFRAYCYFNLVRAFGEVPLVTFKVNDASEANVPKTTAEEIYKQIDSDLTQAEGLLPRQWQSAYLGRLTWGSARALHARTYMMRNDWQNMYTAATDVMNSGQYNLNTPYDVIFTDEGENSSESVFELQCASTAALPASDKIGSQFCEVQGVRGSGQWDLGWGWHMGTELMGEAFEPGDPRKDATLLYFRRSDTDPITPENTNKPYGESPVSQADGTYFNKKAYTNPALREEFTRHGFWVNIRIIRYGDVVLMAAESANELGKTGEASNYLEMVRARARGNNPDILPKVTSLDQTVLRDAIRHERRVELGLESGRFYDLVRWGIASQVLHAAGKTGYQPKNALLPLPQDEIDKSKGVLVQNPDY”, the “soluble on expression in E. coli” value is on record as “not soluble”.
On to “SEKYNSLSDFLKEFYIPTYVLSAETEEEEEEESRPTPASPVLVFINSKSGGQLGGELILTYRSLLNHNQVFDLDQETPDKVLRRIYLNLERLKDDDFARQIREKLKIIVAGGDGTAGWLLGVVCDLKLSHPPPIATVPLGTGNNLPFAFGWGKKNPGTDRTAVESFLEQVLKAKVMKIDNWHILMRMKTPKEGGSCDPVAPLELPHSLHAFHRVSPTDELNKEGCHTFRGGFWNYFSLGMDAQISYAFHSERKLHPEKFKNQLVNQSTYVKLGCTQGWFCASLFHPASRNIAQLAKVKIATRNGQWQDLHIPHSIRSIVCLNLPSFSGGLNPWGTPNPRKQRDRGLTPPFVDDGLIEVVGFRNAWHGLVLLAPNGHGTRLAQANRIRFEFHKGATDHTFMRMDGEPWKQPLPLDDETVMVEISHLGQVNMLATHDCRSRSVFDPSTPRHQDGAEDYDDNEDDSVAEGEEFRKFGAADTFKIPDEVDISQLS”, for which the “soluble on expression in E. coli” value is “soluble”.
Regarding “MLVMIDTKRPPVYIDSQVGLNTFFFIRGQYPSLNLFVSFITTVKTLGNNVSRTHGDDAESDCVCDSVSNVDENNEVVDEQDDVEDDKTDEDEEEGDNEDGDGYDAY”, the “soluble on expression in E. coli” value is recorded as “not soluble”.
Regarding “MKKTIISTLVIGLVSGCSNTNLLKDNLASEQSVINLSKSSNEAKSRNIEFLSGAYLSERKVPKHDIKFSGKYVEFESKSPIELIDVLDGLSKQYNIQYVFSDELEDENSEENKKSSGSSSAKKIKYSGPLAGFFDYLSSAYNMHFEFGHNNLVKAYHYKNQVFNLQQYFDDNKFSSSMQIGGTSGTSSGLKGTADTAIESNSWEKIDEFLSASLGETGKFTIFEDYSLVTVKARPDKFLLLHTFFDKLINESKMQIAVDYRVVSLSEERLNQLAAKFGIENAGKYSITSDMVDAISLSQVGGGLGASYRSASARLDAVVNELSQEVMHEGHFIGIPNRVMPLNVTTNSKYISSIETTKDTNTDEETRTVKVSDLVTGFSMMVMPKILDDGRIQISSGFSRKQLVSIGTAQGITLPTVDENESMNTVTMNPGEVRLAMLFKDNYIQNSNGVQLLGGGTENKKSARYIAVLVGASSYKTNDLASNRVNIYD”, the “soluble on expression in E. coli” value is given as “not soluble”.
As to “MKMGENVTEYFEFAGVKNTENTLKYAIERAKLGISDIVVASSYGETAKMLFDMLEKENLNVNVVVVTYHQGFSGPDVVAMPENVKKDLEKRGATVFSGTHALSGVERGISKRFGGYGPVEVIAQTLKTLGQGVKVCYEVTVMAADAGLVSTKKEIIAIGGSSRGADSAVVIRPSNMNTFFDIELRELICMPKNKKKHEMAGDPLEHHHHHH”, the “soluble on expression in E. coli” value is “soluble”.
To “MDSLKGMAIFATVVDKGSMAAAAQSLGMTPSAVSQQIRKLESRAQVTLLHRTTRRLTLTEAGEAFYRSCAQMLAIAEEAERRLGEWRDAPVGELRLAAPVGFSGTLITQALKPLLENHRQLRLQLFFQDERIDLVAERIDLAIRVGNLADSSLVARHLGDWSSVLCAAPAYLRQRAPINRPEQLTEVDWISLNTSNHLNHLTLSGPGGEVCKLRLEPRVAANGMLAVRQFTLDGLGVSYQPLPEVRDALNDGRLQQLLPEWRIPGLGIYAVTPRREAQPAKVKVAIEALRRAFATDGDERWS” belongs “not soluble”; to “MEVDNVKPSSSVPQRNWEKENNVQNVDSIFEYNNKQQVEIRNAKPWDKDPHYFKQIKISAIALLKMTMHAKRGGNLEIMGLLQGRIDANSFIILDVFALPVEGTETRVNAQAQAYEYMTVYSEMCDTEGRKEKVVGWYHSHPGYGCWLSGIDVSTQTLNQKFQEPWVAIVIDPLRTMSAGKVDIGAFRTYPEGYRPPDDVPSEYQSIPLAKIEDFGVHCKRYYSLDVSFFKSQLDAHILTSLWNSYWISTLSSSPLFSNVEFLNNQIQDINQKLSAVDKKLQLNDRSVDGHEALMKVVTDAKAVGDELETGRISHLVKQLLFARQAGGGCGCSHASAGSPMDIAVATEPEKAGPSPSAPEPAVEMADA”, “not soluble”.
As for “MELDDALDELSDSLGQRQPDPDENKPLDDKVKEKIKAEHSEKLGERDDTIPPEYRHLLDNDGKDKPEKPLTKNTEKPGQDQDPIDALSEDLDSCP”, the “soluble on expression in E. coli” value is “soluble”.
On to “AHHHHHHGSKIKVGINGYGTIGKRVAYAVTKQDDMELIGVTKTKPDFEAYRAKELGIPVYAASEEFLPRFEKAGFEVEGTLNDLLEKVDIIVDATPGGMGEKNKQLYEKAGVKAIFQGGEKAEVAQVSFVAQANYEAALGKDYVRVVSCNTTGLVRTLNAIKDYVDYVYAVMIRRAADPNDIKRGPINAIKPSVTIPSHHGPDVQTVIPINIETSAFVVPTTIMHVHSIMVELKKPLTREDVIDIFENTTRVLLFEKEKGFESTAQLIEFARDLHREWNNLYEIAVWKESINVKGNRLFYIQAVHQESDVIPENIDAIRAMFEIAEKWESIKKTNKSLGILK”, for which the “soluble on expression in E. coli” value is reported as “soluble”.
With “MLEALRKCPTMFAVTSDGSSTMAKMDNSARQLALFVATTNGEFYQSNFGEEALETIKYQLGKDAGWGLFFDVLRNAFNGNCVSILARSEDTAHILCGKEDCSEKSALCFPIQKTEEDTSATILKCLVDANAVYANPKEEKNKVQKIMEELEKAKLQVRMLEEEVRVLCENNIWRRKQDTKNTLKIGKLRDNISRLSNQINPKAKEVSETSVGETSGPHAEDSYIPGRKLLRLVFEKKECKEYDVELLRLIKSRWPKTEGSKACNASNCLIDPYTESELPERLSRMSKKHKMVWGTLNGLDDWDYNVFELQAAIDGDDINCKNDQSGCGALFITMYALVVKYGFLRKFEINERIFLNWLSAVEGGYHANPYHNSMHAADVLHITHYLLSKGGLAELCKLNDRQVLAALFAAAIHDYNHPGINNNFSILTQTYNATLYNDRSVLENMHVASVFELMRNPALNILACFSEEHWRDFRNTVIDMVLATDMSLHEKYMTQFKRRLSEKRPFTEDCDQNLALAMALKLADISNCCRPLPLYLKWSERVSDEFYTQGDRERSLGMSCSPFMDRQTPMIAEGQTSFINYIFIPFLEVMAEFLPSMGFTLGLAAVCKSHRLVGNTGQGT”, the “soluble on expression in E. coli” value is recorded as “not soluble”.
Next, “MYGVLVIGAPGAGKSTFCAGLTDIFSQTKRPFLTINLDPANDTMAYAPDVNITEMITVNDVMDRLGLGPNGALKYCIETLGANCNWLLQKIEANHKKYLIIDCPGQLELYKSEGELWKVIRFLEKSGVRLCALHLADSLYCSDPSKFISVALSTLATMVTMEMPQVNCLSKADLFSEDGTYDLEFFSHLPDVNRLLDLLNEVPGLEKYRKLNEAICGVISDFDLVSFVPLAVENKESMMKVIQMVDAANGFSLTEQGDIRELILNSKA”: “not soluble”; “MARKTKQQALETRQHILDVALRLFSQQGVSATSLAEIANAAGVTRGAIYWHFKNKSDLFSEIWELSESNIGELEIEYQAKFPDDPLSVLREILVHILEATVTEERRRLLMEIIFHKCEFVGEMVVVQQAQRSLCLESYDRIEQTLKHCINAKMLPENLLTRRAAILMRSFISGLMENWLFAPQSFDLKKEARAYVTILLEMYQLCPTLRASTVNGSP”: “not soluble”.
